Reference: PMC10198636 (Science Advances, 2023)
One block for each binder: values may come before it.

Target: Cul3(N), recombinant N-terminal domain of human Cul3 (human, UniProt Q13618 1-417)
Assay: ITC

Cul3(N), recombinant N-terminal domain of human Cul3, sequence (Q13618 1-417): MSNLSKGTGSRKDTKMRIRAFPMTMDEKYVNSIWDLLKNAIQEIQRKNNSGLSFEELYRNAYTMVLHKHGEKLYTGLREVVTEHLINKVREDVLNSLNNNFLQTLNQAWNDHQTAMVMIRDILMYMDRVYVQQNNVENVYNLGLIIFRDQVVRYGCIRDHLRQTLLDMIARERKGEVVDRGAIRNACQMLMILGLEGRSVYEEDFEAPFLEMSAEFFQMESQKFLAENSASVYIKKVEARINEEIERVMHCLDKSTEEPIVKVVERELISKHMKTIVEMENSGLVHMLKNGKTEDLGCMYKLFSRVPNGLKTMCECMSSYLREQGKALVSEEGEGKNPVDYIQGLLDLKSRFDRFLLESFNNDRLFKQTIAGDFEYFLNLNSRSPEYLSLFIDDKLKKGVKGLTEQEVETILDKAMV

Kd: 13.8 nM
B1: KLHL3(N), recombinant N-terminal portion of human KLHL3 spanning the BTB and BACK domains (domain or fragment)
chain: MEGESVKLSSQTLIQAGDDEKNQRTITVNPAHMGKAFKVMNELRSKQLLCDVMIVAEDVEIEAHRVVLAACSPYFCAMFTGDMSESKAKKIEIKDVDGQTLSKLIDYIYTAEIEVTEENVQVLLPAASLLQLMDVRQNCCDFLQSQLHPTNCLGIRAFADVHTCTDLLQQANAYAEQHFPEVMLGEEFLSLSLDQVCSLISSDKLTVSSEEKVFEAVISWINYEKETRLEHMAKLMEHVRLPLLPRDYLVQTVEEEALIKNNNTCKDFLIEAMKYHLLP

Kd: 562 nM
B2: Keap1(N), recombinant N-terminal portion of human Keap1 spanning the BTB and BACK domains (domain or fragment)
chain: MQPDPRPSGAGACCRFLPLQSQCPEGAGDAVMYASTECKAEVTPSQHGNRTFSYTLEDHTKQAFGIMNELRLSQQLCDVTLQVKYQDAPAAQFMAHKVVLASSSPVFKAMFTNGLREQGMEVVSIEGIHPKVMERLIEFAYTASISMGEKCVLHVMNGAVMYQIDSVVRACSDFLVQQLDPSNAIGIANFAEQIGCVELHQRAREYIYMHFGEVAKQEEFFNLSHCQLVTLISRDDLNVRCESEVFHACINWVKYDCEQRRFYVQALLRAVRCHSLTPNFLQMQLQKCEILQSDSRCKDYLVKIFEELT
